To fix the notation:
B1: Subtilisin BPN', P00782 (parent)
chain: MRGKKVWISLLFALALIFTMAFGSTSSAQAAGKSNGEKKYIVGFKQTMSTMSAAKKKDVISEKGGKVQKQFKYVDAASATLNEKAVKELKKDPSVAYVEEDHVAHAYAQSVPYGVSQIKAPALHSQGYTGSNVKVAVIDSGIDSSHPDLKVAGGASMVPSETNPFQDNNSHGTHVAGTVAALNNSIGVLGVAPSASLYAVKVLGADGSGQYSWIINGIEWAIANNMDVINMSLGGPSGSAALKAAVDKAVASGVVVVAAAGNEGTSGSSSTVGYPGKYPSVIAVGAVDSSNQRASFSSVGPELDVMAPGVSIQSTLPGNKYGAYNGTSMASPHVAGAAALILSKHPNWTNTQVRSSLENTTTKLGDSFYYGKGLINVQAAAQ

Variants of B1 are the subject of the data set. The settings on record: Bacillus amyloliquefaciens, pH 8, Thermal, DSC, Tris-HCl 5.0 mM, KCl 50 mM, reversible: yes, structure 1SUP, whole UniProt chain shown; for ddG of mutation (higher = less stable): 58.8 °C.

Take Y324K: the “ddG of mutation (higher = less stable)” value is -0.72 kcal/mol.

Take G276A: the “ddG of mutation (higher = less stable)” value is -0.3 kcal/mol; the melting temperature (Tm) (in general, the temperature at the midpoint of the melting transition) is 59.6 °C; the “change of melting temperature, mutant - wild type (higher = more stable)” value (shortened to “change of melting temperature, mutant”) turned out to be 1.1 °C.

For Q313C, the “ddG of mutation (higher = less stable)” value is -1.25 kcal/mol; the Tm amounted to 63.2 °C; the “change of melting temperature, mutant” value was found to be 4.7 °C.

Consider N183D, for which the “ddG of mutation (higher = less stable)” value is -0.45 kcal/mol; the Tm came out at 60.2 °C; the “change of melting temperature, mutant” value was found to be 1.7 °C.

As for N325S, the “ddG of mutation (higher = less stable)” value was -1.07 kcal/mol; the Tm turned out to be 62.5 °C; the “change of melting temperature, mutant” value was 4 °C.

As to M157F, the “ddG of mutation (higher = less stable)” value is -0.48 kcal/mol; the Tm came out at 60.3 °C; the “change of melting temperature, mutant” value came to 1.8 °C.

These data come from FireProtDB (doi:10.1021/bi00444a012).
